Laboratory results taken from article PMC9352680, “A comprehensive thermodynamic model for RNA binding by the Saccharomyces cerevisiae Pumilio protein PUF4”.

Target: T1, PUF4 RNA-binding domain (Saccharomyces cerevisiae, UniProt P25339 537-888)
T1 sequence: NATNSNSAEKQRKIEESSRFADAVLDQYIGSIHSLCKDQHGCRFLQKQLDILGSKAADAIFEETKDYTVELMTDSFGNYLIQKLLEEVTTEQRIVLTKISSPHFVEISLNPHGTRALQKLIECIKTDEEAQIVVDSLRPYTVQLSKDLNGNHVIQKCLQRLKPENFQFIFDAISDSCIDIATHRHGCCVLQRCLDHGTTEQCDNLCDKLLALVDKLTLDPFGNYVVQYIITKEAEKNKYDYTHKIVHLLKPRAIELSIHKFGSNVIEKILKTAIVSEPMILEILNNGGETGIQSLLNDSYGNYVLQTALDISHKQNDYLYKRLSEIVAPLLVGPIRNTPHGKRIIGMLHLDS
Experiment: Mg; RNA-MaP; 20 mM Na-HEPES pH 7.4, 30 mM KOAc, 0.75 mM MgCl2, 0.1% Tween-20, 5% glycerol, 0.1 mg/mL BSA, 2 mM DTT; 25 C; 0.0125-409.6 nM protein
Conditions: tags: N-His6-TEV cleaved; C-SNAP kept, Cy3B-labelled; label: tethered on chip by stalled RNA polymerase

UCUCUUUGUAAUCUUCUCUU (ssRNA) [Ic_S1_P3E.1_K3.1_C3.1_H3.1_A3.1_[T5A]_[A6T]_F3.1_[T7C]_[A8T]_T3.1]
Kd: 70.2 nM

UCUCUUUGUAAGCGUCUCUU (ssRNA) [Ic_S1_P3E.1_K3.1_C3.1_H3.1_A3.1_[T5A]_[A6G]_F3.1_[T7C]_[A8G]_T3.1]
Kd: 1910 nM

UCUCUUUGUACUAUUCUCUU (ssRNA) [Ic_S1_P3E.1_K3.1_C3.1_H3.1_A3.1_[T5C]_[A6T]_F3.1_[T7A]_[A8T]_T3.1]
Kd: 9.51 nM

UCUCUUUGUAACUUUCUCUU (ssRNA) [Ic_S1_P3E.1_K3.1_C3.1_H3.1_A3.1_[T5A]_[A6C]_F3.1_[A8T]_T3.1]
Kd: 57.1 nM

UCUCUUUGUACGUGUCUCUU (ssRNA) [Ic_S1_P3E.1_K3.1_C3.1_H3.1_A3.1_[T5C]_[A6G]_F3.1_[A8G]_T3.1]
Kd: 492 nM

UCUCUUUGUAAUCCUCUCUU (ssRNA) [Ic_S1_P3E.1_K3.1_C3.1_H3.1_A3.1_[T5A]_[A6T]_F3.1_[T7C]_[A8C]_T3.1]
Kd: 812 nM

UCUCUUUGUAAUGUUCUCUU (ssRNA) [Ic_S1_P3E.1_K3.1_C3.1_H3.1_A3.1_[T5A]_[A6T]_F3.1_[T7G]_[A8T]_T3.1]
Kd: 329 nM

UCUCUUUGUACUAGUCUCUU (ssRNA) [Ic_S1_P3E.1_K3.1_C3.1_H3.1_A3.1_[T5C]_[A6T]_F3.1_[T7A]_[A8G]_T3.1]
Kd: 524 nM

UCUCUUUGUACACCUCUCUU (ssRNA) [Ic_S1_P3E.1_K3.1_C3.1_H3.1_A3.1_[T5C]_F3.1_[T7C]_[A8C]_T3.1]
Kd: 41.8 nM

UCUCUUUGUACUCUUCUCUU (ssRNA) [Ic_S1_P3E.1_K3.1_C3.1_H3.1_A3.1_[T5C]_[A6T]_F3.1_[T7C]_[A8T]_T3.1]
Kd: 44.3 nM

UCUCUUUGUAACGCUCUCUU (ssRNA) [Ic_S1_P3E.1_K3.1_C3.1_H3.1_A3.1_[T5A]_[A6C]_F3.1_[T7G]_[A8C]_T3.1]
Kd: 996 nM

UCUCUUUGUACUUCUCUCUU (ssRNA) [Ic_S1_P3E.1_K3.1_C3.1_H3.1_A3.1_[T5C]_[A6T]_F3.1_[A8C]_T3.1]
Kd: 190 nM

UCUCUUUGUACACGUCUCUU (ssRNA) [Ic_S1_P3E.1_K3.1_C3.1_H3.1_A3.1_[T5C]_F3.1_[T7C]_[A8G]_T3.1]
Kd: 27.2 nM

UCUCUUUGUACCCUUCUCUU (ssRNA) [Ic_S1_P3E.1_K3.1_C3.1_H3.1_A3.1_[T5C]_[A6C]_F3.1_[T7C]_[A8T]_T3.1]
Kd: 59.5 nM

UCUCUUUGUAAGCUUCUCUU (ssRNA) [Ic_S1_P3E.1_K3.1_C3.1_H3.1_A3.1_[T5A]_[A6G]_F3.1_[T7C]_[A8T]_T3.1]
Kd: 653 nM

UCUCUUUGUAACCAUCUCUU (ssRNA) [Ic_S1_P3E.1_K3.1_C3.1_H3.1_A3.1_[T5A]_[A6C]_F3.1_[T7C]_T3.1]
Kd: 959 nM

UCUCUUUGUAAUCGUCUCUU (ssRNA) [Ic_S1_P3E.1_K3.1_C3.1_H3.1_A3.1_[T5A]_[A6T]_F3.1_[T7C]_[A8G]_T3.1]
Kd: 867 nM

UCUCUUUGUACUAAUCUCUU (ssRNA) [Ic_S1_P3E.1_K3.1_C3.1_H3.1_A3.1_[T5C]_[A6T]_F3.1_[T7A]_T3.1]
Kd: 77.4 nM

UCUCUUUGUAAGCAUCUCUU (ssRNA) [Ic_S1_P3E.1_K3.1_C3.1_H3.1_A3.1_[T5A]_[A6G]_F3.1_[T7C]_T3.1]
Kd: > 2300 nM

UCUCUUUGUACCUCUCUCUU (ssRNA) [Ic_S1_P3E.1_K3.1_C3.1_H3.1_A3.1_[T5C]_[A6C]_F3.1_[A8C]_T3.1]
Kd: 157 nM

UCUCUUUGUACAUAUCUCUU (ssRNA) [Ic_S1_P3E.1_K3.1_C3.1_H3.1_A3.1_[T5C]_F3.1_T3.1]
Kd: 5.88 nM

UCUCUUUGUAAGCCUCUCUU (ssRNA) [Ic_S1_P3E.1_K3.1_C3.1_H3.1_A3.1_[T5A]_[A6G]_F3.1_[T7C]_[A8C]_T3.1]
Kd: 1550 nM

B1: Ia_S4_P5E.1_K5.1_C5.1_H5.1_A5.1_F5.1_[T9A]_T5.1 (ssRNA)
RNA: UUUGACAACUGAUCGUUCUUUCUUGUAUUAUAAUUCUUUCUCGAUCAGUUGUCUUU
Kd: 2.07 nM

B2: Ia_S4_P5E.1_K5.1_C5.1_H5.1_A5.1_[T6C]_F5.1_T5.1 (ssRNA)
RNA: UUUGACAACUGAUCGUUCUUUCUUGUAUCAUUAUUCUUUCUCGAUCAGUUGUCUUU
Kd: 2.73 nM

B3: Ia_S4_P5E.1_K5.1_C5.1_H5.1_[T1A]_A5.1_F5.1_T5.1 (ssRNA)
RNA: UUUGACAACUGAUCGUUCUUUCUAGUAUUAUUAUUCUUUCUCGAUCAGUUGUCUUU
Kd: > 2300 nM

B4: Ia_S4_P5E.1_K5.1_C5.1_H5.1_A5.1_[T5C]_F5.1_T5.1 (ssRNA)
RNA: UUUGACAACUGAUCGUUCUUUCUUGUACUAUUAUUCUUUCUCGAUCAGUUGUCUUU
Kd: 2.21 nM

B5: Ic_S4_P5E.1_K5.1_C5.1_H5.1_A5.1_F5.1_[A10G]_T5.1 (ssRNA)
RNA: UUUGACAACUGAUCGUUCUUUCUUGUAUUAUUGUUCUUUCUCGAUCAGUUGUCUUU
Kd: 11.8 nM

B6: Ia_S4_P5E.1_K5.1_C5.1_H5.1_[A4C]_A5.1_F5.1_T5.1 (ssRNA)
RNA: UUUGACAACUGAUCGUUCUUUCUUGUCUUAUUAUUCUUUCUCGAUCAGUUGUCUUU
Kd: 13.1 nM

UCUCUUUGUAAGUGUCUCUU (ssRNA) [Ic_S1_P3E.1_K3.1_C3.1_H3.1_A3.1_[T5A]_[A6G]_F3.1_[A8G]_T3.1]
Kd: 1820 nM

UCUCUUUGUACCUUUCUCUU (ssRNA) [Ic_S1_P3E.1_K3.1_C3.1_H3.1_A3.1_[T5C]_[A6C]_F3.1_[A8T]_T3.1]
Kd: 34 nM

UCUCUUUGUAACCCUCUCUU (ssRNA) [Ic_S1_P3E.1_K3.1_C3.1_H3.1_A3.1_[T5A]_[A6C]_F3.1_[T7C]_[A8C]_T3.1]
Kd: 975 nM

UCUCUUUGUAACCUUCUCUU (ssRNA) [Ic_S1_P3E.1_K3.1_C3.1_H3.1_A3.1_[T5A]_[A6C]_F3.1_[T7C]_[A8T]_T3.1]
Kd: 81 nM

UCUCUUUGUACGUUUCUCUU (ssRNA) [Ic_S1_P3E.1_K3.1_C3.1_H3.1_A3.1_[T5C]_[A6G]_F3.1_[A8T]_T3.1]
Kd: 40.7 nM

UCUCUUUGUACAGCUCUCUU (ssRNA) [Ic_S1_P3E.1_K3.1_C3.1_H3.1_A3.1_[T5C]_F3.1_[T7G]_[A8C]_T3.1]
Kd: 76.7 nM

UCUCUUUGUACUACUCUCUU (ssRNA) [Ic_S1_P3E.1_K3.1_C3.1_H3.1_A3.1_[T5C]_[A6T]_F3.1_[T7A]_[A8C]_T3.1]
Kd: 349 nM

UCUCUUUGUACACUUCUCUU (ssRNA) [Ic_S1_P3E.1_K3.1_C3.1_H3.1_A3.1_[T5C]_F3.1_[T7C]_[A8T]_T3.1]
Kd: 9.72 nM

UCUCUUUGUACAAUUCUCUU (ssRNA) [Ic_S1_P3E.1_K3.1_C3.1_H3.1_A3.1_[T5C]_F3.1_[T7A]_[A8T]_T3.1]
Kd: 11.1 nM

UCUCUUUGUAACGUUCUCUU (ssRNA) [Ic_S1_P3E.1_K3.1_C3.1_H3.1_A3.1_[T5A]_[A6C]_F3.1_[T7G]_[A8T]_T3.1]
Kd: 534 nM

UCUCUUUGUAACAAUCUCUU (ssRNA) [Ic_S1_P3E.1_K3.1_C3.1_H3.1_A3.1_[T5A]_[A6C]_F3.1_[T7A]_T3.1]
Kd: 99.3 nM

UCUCUUUGUACAAGUCUCUU (ssRNA) [Ic_S1_P3E.1_K3.1_C3.1_H3.1_A3.1_[T5C]_F3.1_[T7A]_[A8G]_T3.1]
Kd: 704 nM

UCUCUUUGUACUGCUCUCUU (ssRNA) [Ic_S1_P3E.1_K3.1_C3.1_H3.1_A3.1_[T5C]_[A6T]_F3.1_[T7G]_[A8C]_T3.1]
Kd: 842 nM

UCUCUUUGUACCACUCUCUU (ssRNA) [Ic_S1_P3E.1_K3.1_C3.1_H3.1_A3.1_[T5C]_[A6C]_F3.1_[T7A]_[A8C]_T3.1]
Kd: 192 nM

UCUCUUUGUACCCCUCUCUU (ssRNA) [Ic_S1_P3E.1_K3.1_C3.1_H3.1_A3.1_[T5C]_[A6C]_F3.1_[T7C]_[A8C]_T3.1]
Kd: 953 nM

UCUCUUUGUACCGUUCUCUU (ssRNA) [Ic_S1_P3E.1_K3.1_C3.1_H3.1_A3.1_[T5C]_[A6C]_F3.1_[T7G]_[A8T]_T3.1]
Kd: 391 nM

UCUCUUUGUAACUCUCUCUU (ssRNA) [Ic_S1_P3E.1_K3.1_C3.1_H3.1_A3.1_[T5A]_[A6C]_F3.1_[A8C]_T3.1]
Kd: 373 nM

UCUCUUUGUACUCCUCUCUU (ssRNA) [Ic_S1_P3E.1_K3.1_C3.1_H3.1_A3.1_[T5C]_[A6T]_F3.1_[T7C]_[A8C]_T3.1]
Kd: 384 nM

UCUCUUUGUAACUGUCUCUU (ssRNA) [Ic_S1_P3E.1_K3.1_C3.1_H3.1_A3.1_[T5A]_[A6C]_F3.1_[A8G]_T3.1]
Kd: 389 nM

UCUCUUUGUACUCAUCUCUU (ssRNA) [Ic_S1_P3E.1_K3.1_C3.1_H3.1_A3.1_[T5C]_[A6T]_F3.1_[T7C]_T3.1]
Kd: 445 nM

UCUCUUUGUAACGGUCUCUU (ssRNA) [Ic_S1_P3E.1_K3.1_C3.1_H3.1_A3.1_[T5A]_[A6C]_F3.1_[T7G]_[A8G]_T3.1]
Kd: > 2300 nM

UCUCUUUGUACUUGUCUCUU (ssRNA) [Ic_S1_P3E.1_K3.1_C3.1_H3.1_A3.1_[T5C]_[A6T]_F3.1_[A8G]_T3.1]
Kd: 112 nM

UCUCUUUGUACCAUUCUCUU (ssRNA) [Ic_S1_P3E.1_K3.1_C3.1_H3.1_A3.1_[T5C]_[A6C]_F3.1_[T7A]_[A8T]_T3.1]
Kd: 8.04 nM

UCUCUUUGUACUGGUCUCUU (ssRNA) [Ic_S1_P3E.1_K3.1_C3.1_H3.1_A3.1_[T5C]_[A6T]_F3.1_[T7G]_[A8G]_T3.1]
Kd: 1060 nM

UCUCUUUGUAAGUUUCUCUU (ssRNA) [Ic_S1_P3E.1_K3.1_C3.1_H3.1_A3.1_[T5A]_[A6G]_F3.1_[A8T]_T3.1]
Kd: 709 nM

UCUCUUUGUACCUGUCUCUU (ssRNA) [Ic_S1_P3E.1_K3.1_C3.1_H3.1_A3.1_[T5C]_[A6C]_F3.1_[A8G]_T3.1]
Kd: 115 nM

UCUCUUUGUAACAGUCUCUU (ssRNA) [Ic_S1_P3E.1_K3.1_C3.1_H3.1_A3.1_[T5A]_[A6C]_F3.1_[T7A]_[A8G]_T3.1]
Kd: 491 nM

UCUCUUUGUAAUGGUCUCUU (ssRNA) [Ic_S1_P3E.1_K3.1_C3.1_H3.1_A3.1_[T5A]_[A6T]_F3.1_[T7G]_[A8G]_T3.1]
Kd: 2030 nM

UCUCUUUGUACCCAUCUCUU (ssRNA) [Ic_S1_P3E.1_K3.1_C3.1_H3.1_A3.1_[T5C]_[A6C]_F3.1_[T7C]_T3.1]
Kd: 429 nM

UCUCUUUGUAACAUUCUCUU (ssRNA) [Ic_S1_P3E.1_K3.1_C3.1_H3.1_A3.1_[T5A]_[A6C]_F3.1_[T7A]_[A8T]_T3.1]
Kd: 15 nM

UCUCUUUGUAACACUCUCUU (ssRNA) [Ic_S1_P3E.1_K3.1_C3.1_H3.1_A3.1_[T5A]_[A6C]_F3.1_[T7A]_[A8C]_T3.1]
Kd: 531 nM

UCUCUUUGUACAACUCUCUU (ssRNA) [Ic_S1_P3E.1_K3.1_C3.1_H3.1_A3.1_[T5C]_F3.1_[T7A]_[A8C]_T3.1]
Kd: 50.4 nM

UCUCUUUGUACGAAUCUCUU (ssRNA) [Ic_S1_P3E.1_K3.1_C3.1_H3.1_A3.1_[T5C]_[A6G]_F3.1_[T7A]_T3.1]
Kd: 891 nM

UCUCUUUGUACUUUUCUCUU (ssRNA) [Ic_S1_P3E.1_K3.1_C3.1_H3.1_A3.1_[T5C]_[A6T]_F3.1_[A8T]_T3.1]
Kd: 19.5 nM

UCUCUUUGUACCGCUCUCUU (ssRNA) [Ic_S1_P3E.1_K3.1_C3.1_H3.1_A3.1_[T5C]_[A6C]_F3.1_[T7G]_[A8C]_T3.1]
Kd: 989 nM
